These are literature values, as cited in publication PMC8175380.

As a reminder, the Kd is the concentration at which binding is half-saturated.

The target in one data set is EED (Homo sapiens) (UniProt O75530). Kind of data set: ITC. (ITC needs no label: the signal is the heat of the interaction.)
In a further data set the target is MDM2 (Homo sapiens) (UniProt Q00987). Nature of the data set: SPR. In general terms: Surface plasmon resonance follows binding to a sensor surface in real time, without labels.
MDM2 (Homo sapiens), sequence (Q00987 whole entry): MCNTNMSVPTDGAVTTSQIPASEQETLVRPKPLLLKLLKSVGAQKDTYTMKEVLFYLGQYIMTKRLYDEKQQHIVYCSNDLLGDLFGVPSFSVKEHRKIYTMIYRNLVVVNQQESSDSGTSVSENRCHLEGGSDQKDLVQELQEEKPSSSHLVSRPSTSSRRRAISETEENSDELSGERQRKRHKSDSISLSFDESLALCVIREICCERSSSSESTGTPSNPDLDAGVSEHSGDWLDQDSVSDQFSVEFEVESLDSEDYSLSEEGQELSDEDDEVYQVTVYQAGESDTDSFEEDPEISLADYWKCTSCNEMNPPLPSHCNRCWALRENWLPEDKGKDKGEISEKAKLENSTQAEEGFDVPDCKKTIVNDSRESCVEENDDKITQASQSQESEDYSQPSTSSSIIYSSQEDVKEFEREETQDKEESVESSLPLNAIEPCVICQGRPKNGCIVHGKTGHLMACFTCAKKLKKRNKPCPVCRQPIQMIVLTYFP

EED (Homo sapiens), sequence (O75530 2-441): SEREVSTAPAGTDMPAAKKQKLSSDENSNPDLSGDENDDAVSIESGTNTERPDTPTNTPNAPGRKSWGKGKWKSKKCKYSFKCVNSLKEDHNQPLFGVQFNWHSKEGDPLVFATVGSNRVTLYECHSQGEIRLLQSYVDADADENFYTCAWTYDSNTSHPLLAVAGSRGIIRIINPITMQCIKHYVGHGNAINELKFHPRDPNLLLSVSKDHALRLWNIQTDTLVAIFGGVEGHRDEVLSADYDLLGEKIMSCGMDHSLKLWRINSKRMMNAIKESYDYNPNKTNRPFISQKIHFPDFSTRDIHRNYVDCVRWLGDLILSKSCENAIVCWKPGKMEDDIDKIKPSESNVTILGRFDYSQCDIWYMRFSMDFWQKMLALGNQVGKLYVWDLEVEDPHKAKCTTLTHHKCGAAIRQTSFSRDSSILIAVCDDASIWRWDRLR
EZH2 peptide aptamer, sequence (Q15910 whole entry): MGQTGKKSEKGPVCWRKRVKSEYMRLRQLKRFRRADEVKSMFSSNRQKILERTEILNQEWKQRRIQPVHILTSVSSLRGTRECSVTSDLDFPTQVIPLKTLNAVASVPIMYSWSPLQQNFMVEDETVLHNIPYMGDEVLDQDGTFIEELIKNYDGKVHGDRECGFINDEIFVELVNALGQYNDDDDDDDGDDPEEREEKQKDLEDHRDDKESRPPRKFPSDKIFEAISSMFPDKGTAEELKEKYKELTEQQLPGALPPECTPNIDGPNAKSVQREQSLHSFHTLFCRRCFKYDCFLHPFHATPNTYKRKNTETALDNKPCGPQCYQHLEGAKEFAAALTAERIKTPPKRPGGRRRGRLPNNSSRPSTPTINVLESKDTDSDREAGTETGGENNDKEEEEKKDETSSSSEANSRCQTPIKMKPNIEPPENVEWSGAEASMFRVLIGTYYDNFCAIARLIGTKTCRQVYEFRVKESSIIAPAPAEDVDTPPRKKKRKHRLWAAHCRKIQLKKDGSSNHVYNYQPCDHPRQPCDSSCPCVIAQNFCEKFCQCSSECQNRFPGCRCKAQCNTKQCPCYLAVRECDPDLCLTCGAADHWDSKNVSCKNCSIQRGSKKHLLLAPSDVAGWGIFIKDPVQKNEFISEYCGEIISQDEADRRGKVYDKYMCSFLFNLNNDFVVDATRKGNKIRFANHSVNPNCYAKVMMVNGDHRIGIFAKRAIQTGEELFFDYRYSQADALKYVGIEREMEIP

In the case of “EZH2 peptide aptamer (from UniProt Q15910)”, in the data set with EED (Homo sapiens), the Kd is 380 nM.
Take “p53 peptide aptamer (from UniProt P04637)”: the equilibrium dissociation constant (Kd) in the data set with MDM2 (Homo sapiens) was 140 nM.
